The values below come from US7049080B2, “Process for detecting serine/threonine kinase activity” (priority 2000, dated 2006).

Experiment [1] relates to NEB antibody #9251. Nature of the experiment: FP controls conjugate/high/low (Example 7). Type of experiment: binding, rabbit. The following applies: Low: P1*°-Tamra + NEB ab (1:20) + competitor 200 nM, 0 h. How it is done: The following reagents have been used (the compositions of the buffers and specifications of the reagents are explained in more detail later on): Hepes buffer, MgCl2 10 mM, ATP 20 μM, P1^∘ peptide at 100 μM, NEB antibody # 9251 1:20 dilution, P1*^∘-TAMRA 5 nM, Pluronic 0.1%, MKK7 at 0, 0.005, 0.02, 0.08, 0.2, 0.5 and 2 μM.
After addition of MKK7, the enzyme reactions were performed in Nunc chambers at RT. The samples were continuously measured at different time points by Fluorescence polarization.
Bis-phosphorylated peptide P1*^∘ can be used as competitor, resulting in free labelled ligand called “low” or “negative control”. This can be seen in the following table 1.

For experiment [2], the target named is Anti active SAPK1/JNK-specific polyclonal antibody, New England Biolabs NEB #9251. As to the kind of experiment: competition with TAMRA-P1*° (5 nM) for the antibody, competitor up to 1 µM (FIG. 3).
Experiment [3] shares this target. As to the kind of experiment: fluorescence polarization, 200 nM P1*° competing with TAMRA-P1*° (5 nM) for antibody 1:20, 0 h.
Experiment [4] shares this target. As to the kind of experiment: fluorescence correlation spectroscopy, competition with TAMRA-P1*° (5 nM) for the NEB antibody (1:20).
Experiment [5] has the same target. As to the kind of experiment: fluorescence polarization, competition with TAMRA-P1*° (5 nM) for NEB #9251 (1:20) in presence of 100 µM P1° substrate peptide, 20 µM ATP, 10 mM MgCl2. (Fluorescence polarisation rises when a labelled molecule tumbles more slowly, as on binding a larger partner.)

Non-standard residues stand in square brackets, D forms with d. pY = N[C@@H](Cc1ccc(OP(=O)(O)O)cc1)C(=O)O; pT = C[C@@H](OP(=O)(O)O)[C@H](N)C(=O)O

As for “H-Lys-Phe-Met-Met-pThr-Pro-pTyr-Val-Val-Thr-Arg-NH2 (H-KFMM[pT]P[pY]VVTR-NH2; SMILES CSCC[C@H](NC(=O)[C@H](Cc1ccccc1)NC(=O)[C@@H](N)CCCCN)C(=O)N[C@@H](CCSC)C(=O)N[C@H](C(=O)N1CCC[C@H]1C(=O)N[C@@H](Cc1ccc(OP(=O)(O)O)cc1)C(=O)N[C@H](C(=O)N[C@H](C(=O)N[C@H](C(=O)N[C@@H](CCCNC(=N)N)C(N)=O)[C@@H](C)O)C(C)C)C(C)C)[C@@H](C)OP(=O)(O)O) [P1*^∘]”, the “Fluorescence Polarization” value in experiment [1] stood at 84.5 mP.

B1: P1° peptide, H-Lys-Phe-Met-Met-Thr-Pro-pTyr-Val-Val-Thr-Arg-NH2 (peptide)
peptide: H-KFMMTP[pY]VVTR-NH2
SMILES: CSCC[C@H](NC(=O)[C@H](Cc1ccccc1)NC(=O)[C@@H](N)CCCCN)C(=O)N[C@@H](CCSC)C(=O)N[C@H](C(=O)N1CCC[C@H]1C(=O)N[C@@H](Cc1ccc(OP(=O)(O)O)cc1)C(=O)N[C@H](C(=O)N[C@H](C(=O)N[C@H](C(=O)N[C@@H](CCCNC(=N)N)C(N)=O)[C@@H](C)O)C(C)C)C(C)C)[C@@H](C)O
Turning to B1, the percent of the bound ligand displaced in experiment [2] was less than 50%.

B2: P1* peptide, H-Lys-Phe-Met-Met-pThr-Pro-Tyr-Val-Val-Thr-Arg-NH2 (peptide)
peptide: H-KFMM[pT]PYVVTR-NH2
SMILES: CSCC[C@H](NC(=O)[C@H](Cc1ccccc1)NC(=O)[C@@H](N)CCCCN)C(=O)N[C@@H](CCSC)C(=O)N[C@H](C(=O)N1CCC[C@H]1C(=O)N[C@@H](Cc1ccc(O)cc1)C(=O)N[C@H](C(=O)N[C@H](C(=O)N[C@H](C(=O)N[C@@H](CCCNC(=N)N)C(N)=O)[C@@H](C)O)C(C)C)C(C)C)[C@@H](C)OP(=O)(O)O
B2 yielded a percent of the bound ligand displaced in experiment [2] of less than 50%.

B3: P1*° peptide, H-Lys-Phe-Met-Met-pThr-Pro-pTyr-Val-Val-Thr-Arg-NH2 (peptide)
peptide: H-KFMM[pT]P[pY]VVTR-NH2
SMILES: CSCC[C@H](NC(=O)[C@H](Cc1ccccc1)NC(=O)[C@@H](N)CCCCN)C(=O)N[C@@H](CCSC)C(=O)N[C@H](C(=O)N1CCC[C@H]1C(=O)N[C@@H](Cc1ccc(OP(=O)(O)O)cc1)C(=O)N[C@H](C(=O)N[C@H](C(=O)N[C@H](C(=O)N[C@@H](CCCNC(=N)N)C(N)=O)[C@@H](C)O)C(C)C)C(C)C)[C@@H](C)OP(=O)(O)O
Take B3: the fluorescence polarization in experiment [3] came to 84.5 mP. Besides, the values for the IC50 in experiment [4] and in experiment [5] were 5 nM and 35.1 nM, respectively.

The term IC50 denotes the concentration that gives 50% inhibition.
